Reference: patent publication US12630600B2 (MEDIMMUNE LIMITED, priority 2022, dated 2026)
Starred links: 1 amine or outer side, 2 acyl side, 3 side chain; linkers in the order of their positions; H or OH if unused. Non-standard residues stand in square brackets, D forms with d. Groups on a side chain read outwards from the residue. No end group written: not given here. *: point of attachment. C20 diacid = O=C(O)CCCCCCCCCCCCCCCCCCC(=O)*; C18 diacid = O=C(O)CCCCCCCCCCCCCCCCC(=O)*; γGlu = O=C(O)[C@H](CCC(=O)[*:2])N[*:1]; αMeF = C[C@](N)(Cc1ccccc1)C(=O)O; AEEA = NCCOCCOCC(=O)O; Aib = CC(C)(N)C(=O)O

Key:
human GLP-1 receptor = human GLP-1 receptor (human, UniProt P43220); experiment: cell-based or functional assay
human glucagon receptor = human glucagon receptor (human, UniProt P47871); experiment: cell-based or functional assay

| Binder | cAMP production EC50 (human GLP-1 receptor) | cAMP production EC50 (human glucagon receptor) |
| --- | --- | --- |
| H[Aib]QGTFTSDVSK[αMeF]LESK([AEEA-AEEA-γGlu-C18 diacid])RAQDFVRWLEA[Aib]G-OH (N-terminus assumed; SMILES CC(C)C[C@H](NC(=O)[C@H](Cc1c[nH]c2ccccc12)NC(=O)[C@H](CCCNC(=N)N)NC(=O)[C@@H](NC(=O)[C@H](Cc1ccccc1)NC(=O)[C@H](CC(=O)O)NC(=O)[C@H](CCC(N)=O)NC(=O)[C@H](C)NC(=O)[C@H](CCCNC(=N)N)NC(=O)[C@H](CCCCNC(=O)COCCOCCNC(=O)COCCOCCNC(=O)CC[C@H](NC(=O)CCCCCCCCCCCCCCCCC(=O)O)C(=O)O)NC(=O)[C@H](CO)NC(=O)[C@H](CCC(=O)O)NC(=O)[C@H](CC(C)C)NC(=O)[C@](C)(Cc1ccccc1)NC(=O)[C@H](CCCCN)NC(=O)[C@H](CO)NC(=O)[C@@H](NC(=O)[C@H](CC(=O)O)NC(=O)[C@H](CO)NC(=O)[C@@H](NC(=O)[C@H](Cc1ccccc1)NC(=O)[C@@H](NC(=O)CNC(=O)[C@H](CCC(N)=O)NC(=O)C(C)(C)NC(=O)[C@@H](N)Cc1c[nH]cn1)[C@@H](C)O)[C@@H](C)O)C(C)C)C(C)C)C(=O)N[C@@H](CCC(=O)O)C(=O)N[C@@H](C)C(=O)NC(C)(C)C(=O)NCC(=O)O) [Peptide 415] | 14.7 pM | 301 pM |
| H[Aib]QGTFTSDVSK[αMeF]LDKK([AEEA-AEEA-γGlu-C18 diacid])RAQDFVRWLL[Aib]E-NH2 (N-terminus assumed; SMILES CC(C)C[C@H](NC(=O)[C@H](Cc1c[nH]c2ccccc12)NC(=O)[C@H](CCCNC(=N)N)NC(=O)[C@@H](NC(=O)[C@H](Cc1ccccc1)NC(=O)[C@H](CC(=O)O)NC(=O)[C@H](CCC(N)=O)NC(=O)[C@H](C)NC(=O)[C@H](CCCNC(=N)N)NC(=O)[C@H](CCCCNC(=O)COCCOCCNC(=O)COCCOCCNC(=O)CC[C@H](NC(=O)CCCCCCCCCCCCCCCCC(=O)O)C(=O)O)NC(=O)[C@H](CCCCN)NC(=O)[C@H](CC(=O)O)NC(=O)[C@H](CC(C)C)NC(=O)[C@](C)(Cc1ccccc1)NC(=O)[C@H](CCCCN)NC(=O)[C@H](CO)NC(=O)[C@@H](NC(=O)[C@H](CC(=O)O)NC(=O)[C@H](CO)NC(=O)[C@@H](NC(=O)[C@H](Cc1ccccc1)NC(=O)[C@@H](NC(=O)CNC(=O)[C@H](CCC(N)=O)NC(=O)C(C)(C)NC(=O)[C@@H](N)Cc1c[nH]cn1)[C@@H](C)O)[C@@H](C)O)C(C)C)C(C)C)C(=O)N[C@@H](CC(C)C)C(=O)NC(C)(C)C(=O)N[C@@H](CCC(=O)O)C(N)=O) [Peptide 420] | 23.1 pM | 36.9 pM |
| H[Aib]QGTFTSDVSK[αMeF]LDTK([AEEA-AEEA-γGlu-γGlu-C20 diacid])RAQDFVAWLEA[Aib]G-OH (N-terminus assumed; SMILES CC(C)C[C@H](NC(=O)[C@H](Cc1c[nH]c2ccccc12)NC(=O)[C@H](C)NC(=O)[C@@H](NC(=O)[C@H](Cc1ccccc1)NC(=O)[C@H](CC(=O)O)NC(=O)[C@H](CCC(N)=O)NC(=O)[C@H](C)NC(=O)[C@H](CCCNC(=N)N)NC(=O)[C@H](CCCCNC(=O)COCCOCCNC(=O)COCCOCCNC(=O)CC[C@H](NC(=O)CC[C@H](NC(=O)CCCCCCCCCCCCCCCCCCC(=O)O)C(=O)O)C(=O)O)NC(=O)[C@@H](NC(=O)[C@H](CC(=O)O)NC(=O)[C@H](CC(C)C)NC(=O)[C@](C)(Cc1ccccc1)NC(=O)[C@H](CCCCN)NC(=O)[C@H](CO)NC(=O)[C@@H](NC(=O)[C@H](CC(=O)O)NC(=O)[C@H](CO)NC(=O)[C@@H](NC(=O)[C@H](Cc1ccccc1)NC(=O)[C@@H](NC(=O)CNC(=O)[C@H](CCC(N)=O)NC(=O)C(C)(C)NC(=O)[C@@H](N)Cc1c[nH]cn1)[C@@H](C)O)[C@@H](C)O)C(C)C)[C@@H](C)O)C(C)C)C(=O)N[C@@H](CCC(=O)O)C(=O)N[C@@H](C)C(=O)NC(C)(C)C(=O)NCC(=O)O) [Peptide 418] | 88.1 pM | 222 pM |
| H[Aib]QGTFTSDVSK[αMeF]LDRK([AEEA-AEEA-γGlu-C18 diacid])RAQDFVRWLL[Aib]TE-OH (N-terminus assumed; SMILES CC(C)C[C@H](NC(=O)[C@H](Cc1c[nH]c2ccccc12)NC(=O)[C@H](CCCNC(=N)N)NC(=O)[C@@H](NC(=O)[C@H](Cc1ccccc1)NC(=O)[C@H](CC(=O)O)NC(=O)[C@H](CCC(N)=O)NC(=O)[C@H](C)NC(=O)[C@H](CCCNC(=N)N)NC(=O)[C@H](CCCCNC(=O)COCCOCCNC(=O)COCCOCCNC(=O)CC[C@H](NC(=O)CCCCCCCCCCCCCCCCC(=O)O)C(=O)O)NC(=O)[C@H](CCCNC(=N)N)NC(=O)[C@H](CC(=O)O)NC(=O)[C@H](CC(C)C)NC(=O)[C@](C)(Cc1ccccc1)NC(=O)[C@H](CCCCN)NC(=O)[C@H](CO)NC(=O)[C@@H](NC(=O)[C@H](CC(=O)O)NC(=O)[C@H](CO)NC(=O)[C@@H](NC(=O)[C@H](Cc1ccccc1)NC(=O)[C@@H](NC(=O)CNC(=O)[C@H](CCC(N)=O)NC(=O)C(C)(C)NC(=O)[C@@H](N)Cc1c[nH]cn1)[C@@H](C)O)[C@@H](C)O)C(C)C)C(C)C)C(=O)N[C@@H](CC(C)C)C(=O)NC(C)(C)C(=O)N[C@H](C(=O)N[C@@H](CCC(=O)O)C(=O)O)[C@@H](C)O) [Peptide 421] | 87.3 pM | 180 pM |
| H[Aib]QGTFTSDVSK[αMeF]LDTK([AEEA-AEEA-γGlu-C18 diacid])RAQDFVRWLE[Aib]E-OH (N-terminus assumed; SMILES CC(C)C[C@H](NC(=O)[C@H](Cc1c[nH]c2ccccc12)NC(=O)[C@H](CCCNC(=N)N)NC(=O)[C@@H](NC(=O)[C@H](Cc1ccccc1)NC(=O)[C@H](CC(=O)O)NC(=O)[C@H](CCC(N)=O)NC(=O)[C@H](C)NC(=O)[C@H](CCCNC(=N)N)NC(=O)[C@H](CCCCNC(=O)COCCOCCNC(=O)COCCOCCNC(=O)CC[C@H](NC(=O)CCCCCCCCCCCCCCCCC(=O)O)C(=O)O)NC(=O)[C@@H](NC(=O)[C@H](CC(=O)O)NC(=O)[C@H](CC(C)C)NC(=O)[C@](C)(Cc1ccccc1)NC(=O)[C@H](CCCCN)NC(=O)[C@H](CO)NC(=O)[C@@H](NC(=O)[C@H](CC(=O)O)NC(=O)[C@H](CO)NC(=O)[C@@H](NC(=O)[C@H](Cc1ccccc1)NC(=O)[C@@H](NC(=O)CNC(=O)[C@H](CCC(N)=O)NC(=O)C(C)(C)NC(=O)[C@@H](N)Cc1c[nH]cn1)[C@@H](C)O)[C@@H](C)O)C(C)C)[C@@H](C)O)C(C)C)C(=O)N[C@@H](CCC(=O)O)C(=O)NC(C)(C)C(=O)N[C@@H](CCC(=O)O)C(=O)O) [Peptide 419] | 96.9 pM | 264 pM |
| H[Aib]QGTFTSDVSK[αMeF]LDTK([AEEA-AEEA-γGlu-γGlu-C18 diacid])RAQDFVAWLEA[Aib]G-OH (N-terminus assumed; SMILES CC(C)C[C@H](NC(=O)[C@H](Cc1c[nH]c2ccccc12)NC(=O)[C@H](C)NC(=O)[C@@H](NC(=O)[C@H](Cc1ccccc1)NC(=O)[C@H](CC(=O)O)NC(=O)[C@H](CCC(N)=O)NC(=O)[C@H](C)NC(=O)[C@H](CCCNC(=N)N)NC(=O)[C@H](CCCCNC(=O)COCCOCCNC(=O)COCCOCCNC(=O)CC[C@H](NC(=O)CC[C@H](NC(=O)CCCCCCCCCCCCCCCCC(=O)O)C(=O)O)C(=O)O)NC(=O)[C@@H](NC(=O)[C@H](CC(=O)O)NC(=O)[C@H](CC(C)C)NC(=O)[C@](C)(Cc1ccccc1)NC(=O)[C@H](CCCCN)NC(=O)[C@H](CO)NC(=O)[C@@H](NC(=O)[C@H](CC(=O)O)NC(=O)[C@H](CO)NC(=O)[C@@H](NC(=O)[C@H](Cc1ccccc1)NC(=O)[C@@H](NC(=O)CNC(=O)[C@H](CCC(N)=O)NC(=O)C(C)(C)NC(=O)[C@@H](N)Cc1c[nH]cn1)[C@@H](C)O)[C@@H](C)O)C(C)C)[C@@H](C)O)C(C)C)C(=O)N[C@@H](CCC(=O)O)C(=O)N[C@@H](C)C(=O)NC(C)(C)C(=O)NCC(=O)O) [Peptide 417] | 33.9 pM | 16.4 pM |
| H[Aib]QGTFTSDVSK[αMeF]LESK([AEEA-AEEA-γGlu-C20 diacid])RAQDFVRWLEA[Aib]G-OH (N-terminus assumed; SMILES CC(C)C[C@H](NC(=O)[C@H](Cc1c[nH]c2ccccc12)NC(=O)[C@H](CCCNC(=N)N)NC(=O)[C@@H](NC(=O)[C@H](Cc1ccccc1)NC(=O)[C@H](CC(=O)O)NC(=O)[C@H](CCC(N)=O)NC(=O)[C@H](C)NC(=O)[C@H](CCCNC(=N)N)NC(=O)[C@H](CCCCNC(=O)COCCOCCNC(=O)COCCOCCNC(=O)CC[C@H](NC(=O)CCCCCCCCCCCCCCCCCCC(=O)O)C(=O)O)NC(=O)[C@H](CO)NC(=O)[C@H](CCC(=O)O)NC(=O)[C@H](CC(C)C)NC(=O)[C@](C)(Cc1ccccc1)NC(=O)[C@H](CCCCN)NC(=O)[C@H](CO)NC(=O)[C@@H](NC(=O)[C@H](CC(=O)O)NC(=O)[C@H](CO)NC(=O)[C@@H](NC(=O)[C@H](Cc1ccccc1)NC(=O)[C@@H](NC(=O)CNC(=O)[C@H](CCC(N)=O)NC(=O)C(C)(C)NC(=O)[C@@H](N)Cc1c[nH]cn1)[C@@H](C)O)[C@@H](C)O)C(C)C)C(C)C)C(=O)N[C@@H](CCC(=O)O)C(=O)N[C@@H](C)C(=O)NC(C)(C)C(=O)NCC(=O)O) [Peptide 416] | 67.7 pM | 581 pM |
